Laboratory results taken from the nanobody polyreactivity screen of Harvey et al. (2022).

Assay: yeast display, Sf9 membrane polyspecificity reagent, FACS + sequencing; frameworks hold sequencing errors
In short: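 Genes from sorted yeast were amplified by colony PCR, read by MiSeq 2 × 250 sequencing and filtered on CDR length. These cells carried a synthetic nanobody library in Saccharomyces cerevisiae BJ5465 and were sorted by FACS into low and high (top ~1%) gates on anti-HA and streptavidin fluorescence. Polyreactivity is labelled according to the gate of origin.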

Sequence | polyreactivity (PSR sort gate)
QVQLVESGGGLVQAGGSLRLSCAASGSTFTIYAMGWYRQATGKERELVATIRAGGGRTSYADSVKGRFTISRDNAKNTVYLQMNSLKPEDTAVYYCAVYVRPTRYGYWGQGTQVTVSS | high polyreactivity
KVQLVESGAGLVQAGGSLRLSCAASGITFVRYVMGWYRQAPGKERELVAAISNSGGRTYYADSVKGRFTISRDNAKNTVYLQMNSLKPEDTAVYYCARRAGSYPYGYTGYDYWGQGTLVTVSS | high polyreactivity
QVQLVESGGGLVQAGGSLRLSCAASGRIFRYYAMGWYRQAPGKERELVAAISSSGGSTYYADSVKGRFTISRDNAKNTVYLQMNSLKPEDTAVYYCNTVGSVGKKRDYWGQGTQVTVSS | high polyreactivity
QVQLVESGGGLVQAGGSLRLSCAASGSTFIGHAMGWYRQAPGIERELVATITSGDSTYADSVKGRFTISRDNAKNTVYLQMNSLKPEDTAVYYCNADPWDIGSSFELDYWGQGTQLTVSS | low polyreactivity
QVQLVESGRGLVQAGGSLRLSCAASGFTFYRYAMGWYRQAPGKERELVAAISWSGGSTYYADSVKGRFTISRDNAKNTVYLQMNSLKPEDTAVYYCAANRRFVGTGSTYYYWGQGTHVTVSS | high polyreactivity
QVQLVESGGGLVQAGGSLRLSCAGYGRIFEDNSMVSYRQPPGKERELVAAISSGDSTKYADSVKGRFTISRDNAKTTVYLQIKSLKQEDTAVYYCAAERNHGLVGSESVGRNVYWGHGTQVTVSS | low polyreactivity
QVQLVESGGGLVQAGGSLRLSCAASGRIFVASAMGWYRQAPGKERELVAAISKTGGSTYYADSVKGRFTISRDNAKKTVYLQMNSLKPEDTAVYYCAADVYRRFDYWGQGTQVTVSS | low polyreactivity
QVQLEESGRGLVQAGGSLRLSCAASGSIFIVYAIGWYRQAPGKERELVAAINDGGSTSYADSVKGRFTISRDNAKNTVYLQMNSLKPEDTAVYFCAAETYLGNDYWEDYYWGQGTQVTVSS | low polyreactivity
QVNLVQSAGGLVQAGCSLRLSCPASGFILYKNAMGRYRQKPGKERELVAISSSGGSTYYADSVKGRFTISRENAKNTVYLLMNSLKPEDTAVYYCGAYIYGTYYYWGQGTQVTVSS | high polyreactivity
QVQLVESGGGLVQAGGSLPLSCAASGGTFYKYAMGWYRQAPGKERELVARISRGGSTYYADSVKGRFTISRDNAKNTVYLQMTSLKPEDTAVYYCAKLWYAVWPIVVQYNYWGQGTQVNVSS | high polyreactivity
QVQLVESGGGLVQAGGSLRLSCAASGRIFGRNAMGWYRQAPGKEREFVAAITSSGGNTYYADSVKGRFTISRDNAKNTVYLQMNSLKPEDTAVYYCAARGARYCTSDYWGQGTQVTVSS | high polyreactivity
QVQLQVSGGGLVNAGGSLRLSCAASGNISPRDAMGWYLQAPGEERDLVASNAYSAITYYADGVTGRSTISRDNAKNTEYLQMNSLKPEDTEVYYCAVYQFTYPVFPAYWGQGTQVTVSS | low polyreactivity
QVQLVESGGGLVQAGGSLRLSCAASGSTFVAYVMGWYRQAPGKERELVASITSGGITNYADSVKGRFTISRDNAKNTVYLQMNSLKPEDTAVKGDYWGQGTQVTVSS | low polyreactivity
QVQLQESVGGLVQAGGSLRLSCAASGNIFPTDRMGWYRQAPGKELEFVATISHGGSTNYADSVKGRFTISRDNAKNTVYLQMNSLKPEDTAVYYCAVWSLGRWRHYYWGQGTQVTVRS | low polyreactivity
QVQLVESGGGLVQAGGSLRLSCAASGSTFYRNAMGWYRQAPGKERELVAGISYGGGSTYYADSVKGRFTISRDNAKNTVYLQMNSLKPEDTAVYYCNAVWVKRHYYYWGQGTQVTVSS | low polyreactivity
QVQLVESGGGLVQAGGSLRLSCAASGLTFWDNAMGWYRQARGKERELVAAIRGGGSTYYADSVKGRFTISRDNAKNTVYLQMNSIIPEDTAVYYCNKQYWYWSNTLTIRDYWGQGTQVTVSS | low polyreactivity

Sequence | polyreactivity (PSR sort gate)
QVQLVESGGGLVQAGGSLRLSCAASGRTFQGYAMGWYRQAPGKERELVAAISYRGGSTYYADSVKGRFTISRDHAKPTVFLPMNSLKPEDTAVYYCAARWNRGRYDYWGQGTQVTVSS | high polyreactivity
QVQLVESGGGLVQAGGSLRLSCAASGRTFYSNVMGWYIQAPGQERELVASISRGGNTYYADSVKGRFTISRDNAKIPFYLQMNSLKPEDTAVYYCAARQYHSRDFDYWGQGTQVTVSS | low polyreactivity
QVQLVESGAGLVQAGGSLRLSCAASGNTFYQYAMGWYRQAPGKERELVAAIDWSGGSTYADSVKGRFTISRDNAKNTVYLQMNSLKPEDTAVYYCEKYTYDYWGQGTQVTVSS | low polyreactivity
QVQLVESGGGLVQAGGSLRLSCAASGRTFRKYAMGWYRQATGKERELVAAISWSGGSTYYANSVKGRFTISGDNAKNTVYLQINSLNPEDTAVYFCAVDCHPEEYDYWGQGTQVTVSS | low polyreactivity
QVQHVESGGGLVQAGGSLRLSCAASGLIFSRYVMGWYRQAPGKERELVAAISRSGGSTYYADSVKGRFTISRDNAKNTVYLQMNSLKPEDTAVYYCNAGRRTGRYGYWGQGTQVTVSS | high polyreactivity
QVQLVESGGGLVQAGGSLRLSCAGSGYILFAYAMGWSRQAPGKERELVATITTSGGITYYADSVKGRFTISRDNAKNTVYLQMNSLKPEDTEVYYWAAAEGGGLVTYDYWGQGSQVTVSS | low polyreactivity
QVHLVESGGGLVQAGGSLRLSCAASGFIFWENGMGWYRQAPGKERELVAAISSGGGRTYYADSVKGLFTISRDNAKNTVYLQMNSLKPEDTAFYYCNRARYYREFDYWGQGTQVTVSS | high polyreactivity
QVQLVESGGGLVQAGGSLRLSCAASGIIFFRYAMGWYRQAPGKERELVAAISLSGGRTYYADSVKGRFTISRDNANNTVYLQMNSVKPEDTAVYYCNTLHRYSSQRYDYWGQGTQVTVSS | high polyreactivity
QVQLVESGGGLVQAGGSLRLSCAASGFILRYYVMGWYRQAPGKERELVAAISSSGGRTYYADSVKGRFTISRDNAKNTVYLQMNSLKPEDTGVYYCATSTYAYRRKSYFYTRPRFGYWGQGYQVTVSS | high polyreactivity
QVQLVESGGGLVQAGGSLRLSCAASGRTFVSNAMGWYRQAPGKERELVAAITQSGGSTYADSVKGRFTISRDNAKNTVYLQLNSLKPEDTAVYYCNSEHAFVGTYYERHDYWGQGTQVTVSS | low polyreactivity
QVQLVESGGGLVQAGGSLRLSCAASGRIFWYNAMGWYRQAPGKERELVATITSAGDTNYADSVKGRFTISRDNAKNTVFLQMNSLKPEDTAVYYCAKYYRWLITRRGSNDYWGQGTQVTVSS | high polyreactivity
QVQLVESGGGLVQAGGSLRLSCAASGSIFGPYAMGWYRQAPGKERELVARITLSAGNTYYADSVKGRFTISRDNAKNTVYLQMNSLKPEDTAVYYCAAKVYSKYWFVGNYWGQGRQVTVSS | high polyreactivity
QVQLVESGGGLVQAGGSLRLSCAASGRTFGYNAMGWYRQAPGKERELVAAITWSGGSTYYADSVKGRFTISRDNAKNTVYLQMNSLKPEDTAVYYCNAYQRLSRAYGYWGQGTQVTVSS | high polyreactivity
QVQLVESGGGLVQAGGSLRLSCAASGNTFNNNAMGWYRQAPGKERELVAAISGSGGSTYYADSVKGRFTISRDNAKNTVYLQMNSLKPEDTAVYYCAVRLVHGGKRYGYWGQGTQVTVSS | high polyreactivity
QVQLVESGGGLVQAGGSLRLSCAASGRIFEYIAMGWYRQAPGKERELVAAITSDGSTNDADSVKGRFTISRDNAKNTVYLQMNSLNPEDTAVYYCNTRYSLYTKYAYYDEHDYWGQGTQVTVSS | low polyreactivity
QVQLVESGGGLVQAGGSLGLNCAASGFTFRVNAMGLYSQAPGKEREFVAAITASGGSTYYADSVKGRFTISRDNAKNTVYLLMNSLKPVDTAVYYCAADWWIYWYPDTGDYWGQRTQVTVSS | high polyreactivity
